How the values were obtained:
Experiment in all cases: native gel or EMSA
[1] = target: His-Halo-PRDM9^Cst ZnF1-11 (Mus musculus castaneus (CAST/EiJ strain))
[2] = target: His-MBP-eYFP-PRDM9^Cst ZnF (Mus musculus castaneus (CAST/EiJ strain))
[3] = target: His-MBP-eYFP-PRDM9^Dom2 ZnF (Mus musculus domesticus (C57BL/6J strain))
[4] = target: His-PRDM9^Cst ZnF1-11 (Mus musculus castaneus (CAST/EiJ strain))
[5] = target: His-PRDM9^Cst ZnF2-6 (Mus musculus castaneus (CAST/EiJ strain))
[6] = target: His-PRDM9^Cst ZnF2-8 (Mus musculus castaneus (CAST/EiJ strain))
[7] = target: His-PRDM9^Cst ZnF (Mus musculus castaneus (CAST/EiJ strain))
[8] = target: His-eYFP-PRDM9^Cst (full-length PRDM9^Cst) (Mus musculus castaneus (CAST/EiJ strain))
[9] = target: His-eYFP-PRDM9^Cst ZnF1-11 (Mus musculus castaneus (CAST/EiJ strain))
[10] = target: His-eYFP-PRDM9^Cst ZnF2-11 (Mus musculus castaneus (CAST/EiJ strain))
[11] = target: His-eYFP-PRDM9^Cst ZnF (Mus musculus castaneus (CAST/EiJ strain))

His-Halo-PRDM9^Cst ZnF1-11 (domain or fragment)
stoichiometry N [1]: 3

His-MBP-eYFP-PRDM9^Cst ZnF (domain or fragment)
stoichiometry N [2]: 3

His-MBP-eYFP-PRDM9^Dom2 ZnF (domain or fragment)
stoichiometry N [3]: 3

His-PRDM9^Cst ZnF1-11 (domain or fragment)
stoichiometry N [4]: 3

His-PRDM9^Cst ZnF2-6 (domain or fragment)
stoichiometry N [5]: 3

His-PRDM9^Cst ZnF2-8 (domain or fragment)
stoichiometry N [6]: 3

His-PRDM9^Cst ZnF (domain or fragment)
stoichiometry N [7]: 3

His-eYFP-PRDM9^Cst (full-length PRDM9^Cst) (natural protein)
stoichiometry N [8]: 3

His-eYFP-PRDM9^Cst ZnF1-11 (domain or fragment)
stoichiometry N [9]: 3

His-eYFP-PRDM9^Cst ZnF2-11 (domain or fragment)
stoichiometry N [10]: 3

His-eYFP-PRDM9^Cst ZnF (domain or fragment)
stoichiometry N [11]: 3

Reference: paper doi:10.1101/498428
